{"source": "paper doi:10.1101/2021.01.04.425348", "about": "(bioRxiv, 2021)", "proteins": {"B1": {"name": "PDI I289A (enzyme)", "chain": "not shown"}}, "target": "the molecule itself", "test": "high-speed atomic force microscopy"}
{"protein": "B1", "values": [{"measurement": "stoichiometry N", "value": 2}]}
